# Measurements as given in patent publication US20050089938A1, “Use of peptide fragments of the calcium channel a-1 subunit, optionally comprising mutations, for screening molecules of therapeutic interest” (priority 2001, published 2005).
# B1: I-II loop of the Cav2.1 sub-unit: I-II loop of the Cav2.1 calcium channel sub-unit; in cells coupled to CD8 transmembrane segment and GFP (protein, listed as Oryctolagus cuniculus)
# chain: SGEFAKERERVENRRAFLKLRRQQQIERELNGYMEWISKAEEVILAEDETDVEQRHPFDGALRRATIKKSKTDLLHPEEAEDQLADIASVGSPFARASIKSAKLENSSFFHKKERRMRFYIRRMVKTQ
# Experiments:
# [1] = molecular target: T1, Cav2.1 channel (Oryctolagus cuniculus, UniProt P27884); test: Inactivation kinetics of the Cav2.1 channel expressed in Xenopus oocytes, two-electrode voltage-clamp Ba2+ currents; format: cell-based, rabbit
# T1 construct: expressed in transfected cells; host or cells: Xenopus laevis oocytes (cRNA injection)
# Experimental: Xenopus oocytes are removed at Stages V and VI from ovaries of Xenopus laevis frogs from South Africa and maintained in standard saline solution (Barth's medium). The cells are treated with collagenase type IA (2 mg/ml) for two hours and the follicular membranes are eliminated manually. The oocytes are maintained in DNOM medium (defined nutrient oocyte medium) for 2 days before injection of cRNA coding for the Cav2.1 channel. The injection of this cRNA coding for the wild-type or mutated channel is carried out at a concentration of 0.3 μg/μl. In the case of coinjection of other cRNAs (for example: CD8-III-IV, III-IV, etc.), these cRNAs are injected at a concentration of 0.1 μg/μl. The injections of III-IV peptide are carried out at a final intracellular concentration of 10 μM. […] Following the cRNA injections, the cells are kept at 16° C. in DNOM medium for a minimum of 4-5 days before continuing with the electrophysiological recordings.
# We applied the two-electrode voltage-clamp technique for the recordings of Ba^2+ currents (the Ba^2+ is more permeable than the Ca^2+ through the high-threshold calcium channels and facilitates our analyses). The recordings are carried out with a GeneClamp amplifier from Axon Instruments (Foster City, Calif.). […] The data are analyzed with the pCLAMP software suite version 6.03 (Axon Instruments). […]
# [2] = test system: high threshold calcium channels; test: High-threshold calcium current after expression of the I-II loop in bovine chromaffin cells; format: cell-based; conditions: bovine chromaffin cells transfected with I-II loop coupled to CD8 transmembrane segment and GFP
# Source text: (§1) The expression of the I-II loop of the Cav2.1 channel is induced following a cell transfection method (thanks to a transfection agent: lipofectamine, fugene etc.). In order to have the ability to bind the endogenous β sub-units to these cells, we have noted that the ability of this I-II sequence to reduce the expression at the plasma membrane of the endogenous high-threshold calcium channels is facilitated by its coupling to a transmembrane segment. The Inventors have used for their experiments the transmembrane segment of the α chain of the human CD8 receptor, coupled to the amino-terminal part of the I-II loop. In order to facilitate the detection of the transfected cells, the carboxy-terminal part of the I-II loop was coupled to GFP protein (Green Fluorescent Protein) which has the property of green fluorescence (easily detectable in fluorescence microscopy). FIG. 1A illustrates the construction used for these experiments. FIG. 1B illustrates the amino-acid sequence of the transmembrane sequence of the α chain of the CD8 receptor.
# [3] = test system: high threshold calcium channels; test: High-threshold calcium current after expression of the I-II loop in rat cerebellum granular cells; format: cell-based; conditions: rat cerebellum granular cells transfected with I-II loop coupled to CD8 transmembrane segment and GFP
# Source text: as §1
# [4] = molecular target: T2, III-IV loop of Cav2.1 (Oryctolagus cuniculus, UniProt P27884); test: Binding of 35S-methionine labelled in vitro translated I-II loop to GST-III-IV fusion protein; parameters: species or system rabbit; conditions: 35S-methionine labelled I-II loop, absence of β sub-unit
# T2 construct: This III-IV loop has been expressed and purified as a GST (Glutathione-S-Tranferase) fusion protein; made in house
# Source text: FIG. 2: Binding of the I-II loop of Cav2.1 to different intracellular loops. […] This III-IV loop has been expressed and purified as a GST (Glutathione-S-Tranferase) fusion protein. The I-II protein of the channel has been translated in vitro and labelled by a radioactive amino acid (^35S-methionine) in order to monitor its binding to the GST-III-IV fusion protein.
# These two amino acids are therefore indispensable to the binding of the I-II loop to the III-IV loop in the absence of the β sub-unit of the calcium channel.
# T1 sequence (P27884 whole entry): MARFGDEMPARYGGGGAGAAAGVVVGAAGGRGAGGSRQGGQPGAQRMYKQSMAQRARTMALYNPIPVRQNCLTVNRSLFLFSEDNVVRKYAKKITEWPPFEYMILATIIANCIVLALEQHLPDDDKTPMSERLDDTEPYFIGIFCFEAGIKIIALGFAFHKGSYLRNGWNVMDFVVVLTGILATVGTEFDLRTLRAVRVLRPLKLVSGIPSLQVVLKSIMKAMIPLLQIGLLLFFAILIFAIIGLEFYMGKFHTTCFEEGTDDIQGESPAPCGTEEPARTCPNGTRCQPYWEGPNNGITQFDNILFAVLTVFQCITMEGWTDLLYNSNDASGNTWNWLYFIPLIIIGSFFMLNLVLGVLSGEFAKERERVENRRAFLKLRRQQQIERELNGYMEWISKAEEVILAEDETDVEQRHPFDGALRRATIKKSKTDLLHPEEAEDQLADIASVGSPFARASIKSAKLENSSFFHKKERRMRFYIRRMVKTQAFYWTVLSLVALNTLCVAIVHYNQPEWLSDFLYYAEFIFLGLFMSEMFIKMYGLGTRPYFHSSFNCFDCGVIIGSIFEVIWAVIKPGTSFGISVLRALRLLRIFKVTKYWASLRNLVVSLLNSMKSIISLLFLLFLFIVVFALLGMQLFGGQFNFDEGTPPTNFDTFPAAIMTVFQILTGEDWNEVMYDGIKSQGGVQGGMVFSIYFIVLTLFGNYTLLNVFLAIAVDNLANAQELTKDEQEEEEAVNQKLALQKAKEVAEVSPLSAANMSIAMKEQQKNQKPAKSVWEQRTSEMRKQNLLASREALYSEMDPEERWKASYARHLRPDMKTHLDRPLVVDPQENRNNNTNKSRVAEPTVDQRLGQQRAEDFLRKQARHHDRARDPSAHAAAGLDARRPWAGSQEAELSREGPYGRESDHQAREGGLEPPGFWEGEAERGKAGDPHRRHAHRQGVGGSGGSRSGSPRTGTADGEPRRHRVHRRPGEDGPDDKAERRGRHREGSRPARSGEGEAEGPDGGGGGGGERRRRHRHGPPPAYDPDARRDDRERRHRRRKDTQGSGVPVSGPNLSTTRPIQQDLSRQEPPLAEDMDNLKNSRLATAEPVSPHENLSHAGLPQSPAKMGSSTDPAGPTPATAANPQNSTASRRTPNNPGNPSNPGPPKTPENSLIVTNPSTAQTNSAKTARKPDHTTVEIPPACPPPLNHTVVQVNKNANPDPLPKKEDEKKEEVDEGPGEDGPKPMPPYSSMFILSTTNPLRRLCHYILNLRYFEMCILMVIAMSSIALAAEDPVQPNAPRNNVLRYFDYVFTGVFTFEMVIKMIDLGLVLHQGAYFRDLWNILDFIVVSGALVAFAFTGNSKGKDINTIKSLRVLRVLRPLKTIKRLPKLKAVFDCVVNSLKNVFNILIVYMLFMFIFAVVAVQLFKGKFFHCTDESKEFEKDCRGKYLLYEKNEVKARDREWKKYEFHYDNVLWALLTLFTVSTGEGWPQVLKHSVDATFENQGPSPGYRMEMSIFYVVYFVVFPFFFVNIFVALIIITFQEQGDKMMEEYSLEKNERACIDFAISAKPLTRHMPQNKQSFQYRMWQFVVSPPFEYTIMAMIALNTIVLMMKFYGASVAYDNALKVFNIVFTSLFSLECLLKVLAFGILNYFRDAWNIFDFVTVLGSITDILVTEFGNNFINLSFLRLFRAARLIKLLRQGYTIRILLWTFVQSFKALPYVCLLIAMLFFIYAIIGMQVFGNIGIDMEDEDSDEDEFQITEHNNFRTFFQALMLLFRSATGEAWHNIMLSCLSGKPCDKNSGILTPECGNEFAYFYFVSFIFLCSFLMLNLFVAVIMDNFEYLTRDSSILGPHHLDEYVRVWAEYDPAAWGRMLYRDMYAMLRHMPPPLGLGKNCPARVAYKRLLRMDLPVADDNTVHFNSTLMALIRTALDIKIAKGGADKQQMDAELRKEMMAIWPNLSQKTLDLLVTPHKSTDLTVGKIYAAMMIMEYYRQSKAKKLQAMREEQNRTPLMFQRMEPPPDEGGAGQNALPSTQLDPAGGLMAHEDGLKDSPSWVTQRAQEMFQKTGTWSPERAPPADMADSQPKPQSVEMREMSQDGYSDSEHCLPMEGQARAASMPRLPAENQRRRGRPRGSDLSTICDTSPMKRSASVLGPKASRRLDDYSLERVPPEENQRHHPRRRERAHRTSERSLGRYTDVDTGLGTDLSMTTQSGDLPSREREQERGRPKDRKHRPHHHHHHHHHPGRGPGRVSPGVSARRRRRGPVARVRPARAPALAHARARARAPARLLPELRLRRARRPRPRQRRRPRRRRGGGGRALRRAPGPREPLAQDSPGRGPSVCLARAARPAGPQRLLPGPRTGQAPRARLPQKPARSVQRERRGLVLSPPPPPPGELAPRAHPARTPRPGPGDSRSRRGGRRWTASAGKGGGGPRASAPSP
# T2 sequence (P27884 1521-1575): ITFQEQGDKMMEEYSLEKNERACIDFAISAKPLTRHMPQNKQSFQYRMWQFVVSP
molecule,measurement,setting,value
III-IV loop: III-IV loop of Cav2.1 expressed coupled in amino-terminal position with the α chain of the human CD8 receptor,effect on inactivation kinetics of the Cav2.1 channel,"[1]; III-IV loop associated with the plasma membrane via amino-terminal coupling to α chain of human CD8 receptor, cRNA coinjection",accelerates the inactivation kinetics
peptide representing the 40 carboxy-terminal amino acids of the III-IV loop: peptide representing the 40 carboxy-terminal amino acids of the III-IV loop of Cav2.1 (LEKNERACIDFAISAKPLTRHMPQNKQSFQYRMWQFVVSP),effect on inactivation kinetics of the Cav2.1 channel,"[1]; peptide free in the cytoplasm, injected, final intracellular concentration 10 μM",acceleration is similar
B1,reduction of the high-threshold calcium current,[2],more than 50%
same,reduction of the high-threshold calcium current,[3],more than 50%
same,binding to the GST-III-IV fusion protein,[4],binding of I-II is evident
